T1: murine MHC class I molecule, H-2Kd (mouse)
T1 chain 1: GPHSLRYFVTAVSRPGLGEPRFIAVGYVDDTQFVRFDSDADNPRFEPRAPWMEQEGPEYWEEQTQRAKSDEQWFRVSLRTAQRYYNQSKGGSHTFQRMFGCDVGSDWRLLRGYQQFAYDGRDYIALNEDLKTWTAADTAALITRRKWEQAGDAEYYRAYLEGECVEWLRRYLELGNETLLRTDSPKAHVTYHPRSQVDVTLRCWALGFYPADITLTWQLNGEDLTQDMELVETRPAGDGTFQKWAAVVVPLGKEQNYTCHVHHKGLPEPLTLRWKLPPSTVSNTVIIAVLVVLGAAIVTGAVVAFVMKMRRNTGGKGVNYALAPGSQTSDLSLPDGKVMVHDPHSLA
T1 chain 2: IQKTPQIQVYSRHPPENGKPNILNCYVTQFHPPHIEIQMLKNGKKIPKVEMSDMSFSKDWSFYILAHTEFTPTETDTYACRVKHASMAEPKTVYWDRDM


What was measured:
[1] = biological target: T1, murine MHC class I molecule, H-2Kd …; assay: MHC class I stabilization assay on TAP-deficient RMAS-Kd cells, anti-H-2Kd-FITC, flow cytometry (background without peptide 6.07%)
[2] = biological target: human MHC class I molecule HLA-A*0201 (human); assay: HLA-A2 stabilization on T2 cells loaded with 50 ug/ml peptide, anti-HLA-A2 (BB7.2) flow cytometry, MFI relative to CMV/A2

| % of RMAS-Kd cells staining positive for surface H-2Kd [1] [%] | relative HLA-A2 surface expression (% of CMV/A2 peptide binding) [2] [%] | Binder |
| --- | --- | --- |
| 72.7 | – | KYNKANVFL (modifications not checked) [NRP-V7] |
| – | > 80 | DLMGYIPLV (modifications not checked) [HCV peptide] |
| 73.7 | – | LYLVCGERG (modifications not checked) [INSL] |

— patent US20070129307A1, “Insulin epitopes for the treatment of type 1 diabetes” (The University of British Columbia, priority 2001, published 2007)
